Measured values reported in patent US20130288275A1, “COMPOSITIONS AND METHODS FOR DETECTING ACETYLATED SUMO PROTEINS” (Georgetown University, priority 2010, published 2013).

Test system: H1299 cells
Test: Cell cycle analysis by flow cytometry
Type: cell-based, human
Conditions: H1299 cells infected with adenovirus expressing p53, 72 hours after infection
Method: FIG. 5. […] 72 hours after infection, cells were harvested and their cell cycle profile was analyzed (see materials and methods). B-C.
Flow cytometry was performed as described previously by Knights, C. D., et al. J. Cell Biol. 173(4):533-544 (2006).

B1: SUMO-1K37-48R: SUMO-1 mutant with lysines K37-K39 and K45, K46 and K48 substituted with arginine (protein, UniProt P63165 2-97, looked up, variant K37R K39R K45R K46R K48R)
Small ubiquitin-related …: SDQEAKPSTEDLGDKKEGEYIKLKVIGQDSSEIHFRVRMTTHLRRLRESYCQRQGVPMNSLRFLFEGQRIADNHTPKELGMEEEDVIEVYQEQTGG
For B1, the apoptotic cells was roughly 2%.
